Experiment: soluble on expression in E. coli; label from the status in PepcDB or PDB records

| Sequence | soluble on expression in E. coli |
| --- | --- |
| MEEKPKYKRILLKLSGEAFAGEQGYGIDPAFLEYISHEIKNVYDLGVQVAIVIGGGNIFRGFQGKEIGVDRATADYMGMLATVINALALQSALENHVNIPTRVLSAIEMRQVAEPYIRRRAIRHLEKGRIVIFAGGTGNPFFSTDTAAALRAAEIGAEVLIKATKVGGIYDKDPEKYPDAVLIKEISYLEVINMGLKVMDHTALTLCKENEIPIIVLNVKEKGNLRRAVLGEEVGSVVRGLEHHHHHH | not soluble |
| MGLSPHVEALQVLQTALQTGEGFIKVTGEVGTGKTLICRKLINELPQGFHCAYLPNPYLTPAELRWAVANELGLKYTSEIDQQQLTGLIQQQLLALSTHGHAIVLVLDEAQALPDESLEALRLFTNLETESRKLLQVVLFGQPELDERLKRQAFRQLRQRITFSYNLRPLEHHHHHH | not soluble |
| MGHRSRSNSRSQSRSRENSRGRSRSASKSPVYHRRERESSRSRSPRARYGGGGGGGGGGGRGRNQQYDRENPQPSKCLGVFNLSSYTTEKDLRDVFGEFGEINKCDLVYDRPSGNSRGFGFIYFNLIEDATAARDKLCNTDLDGHKIRVDFSLTKRGHSPTPGQYMGDRRGGGSSGGGRFGGGGGDRFNDRGSRGGDRYGGDRRGGGGGGGGDRYGGGGGDRYGGDRYGGGGGRRGSPDRRGGFRSGGGGGGYMRSGGGGGGPDRRDHRDNDRNGGGGGHRPYDPSFRRRVESYGSGNSGGGGGRRDRY | not soluble |
| TEPPGVIIVGESEFSFHLGINLRDHGIPVMMFNLFENTSEKAHEAGFEVFKGNLLSSNDRIYSDLLRYNKCILMTQSFIFNSLAFNELVPEFGLNNVDMMPVSFNDEQARNNLNGPIRNHILFDENHTPRWFNQFITQHNIVEVPAEDYEKITEN | not soluble |
| QAAPSQVVVIRQERAGQTSVSLLWQEPEQPNGIILEYEIKYYEKDKEMQSYSTLKAVTTRATVSGLKPGTRYVFQVRARTSAGCGRFSQAMEVETGKP | soluble |
| MGSDKIHHHHHHMEKVKVKNPIVELDGDEMARVMWKMIKEKLILPYLDIQLVYFDLGIKKRDETDDQITIEAAKAIKKYGVGVKCATITPDAERVKEYNLKKAWKSPNATIRAYLDGTVFRKPIMVKNVPPLVKRWKKPIIIGRHAYGDIYNAVEAKVEGPAEVELVVRNKENKTLLVHKFEGNGVVMAMHNLEKSIRSFAQSCINYAISEKVDIWFATKDTISKVYHAYFKDIFQEEVDKRKEELEKAGVNYRYMLIDDAAAQILRSEGGMLWACMNYEGDIMSDMIASGFGSLGLMTSVLVSPDGVYEFEAAHGTVRRHYYRYLKGEKTSTNPTASIFAWTGAIRKRGELDGTPEVCEFADKLEKAVINTIESGVITKDLQPFTEPPIDKYVTLEEFIDEVKKNLEKLL | not soluble |
| MDQEIKSLELNITQLSAITGAHRQTIASRLKGVKTSGGNGSNLKIYRLVDILTAMMTMPAVTGENDPNKMKPSDRRAWFQSEMTRIELEKEMRTLIPASEVLSVYAVMAKTVVKTLEILPDLLERDAALPPDALEMTQKIIDQLREDLASMTYQACADAINGDDDDNGDEGQEEEQE | not soluble |
| MAHHHHHHMSSSEKKHAAWVDVVAGGFGGALAKSLLSPFQRIVVLQQLGQHKSYSIAQLVHHIYAQEGLKSFWRGNLTSMVIRVPYSGIQFLLYTQLKFLFQDWLDRRHAAAALPTHQADGSSDNS | soluble |
| MPSGLEQCAPRCRALLQGESGVQIQGHYELKFEAVREAFAALFEDSQERGAALCIQVGGETVIDLWAGTADKDGAEAWHSDTIANLFSCTKTFTAVTALQLVAEGKLKLDAPVADYWPEFAAAGKAAITLRQLLCHQAGLPAVRELLPAQALYEWQTMVDALAAEQPWWTPGEGHGYAAITYGWLVGELIRRADGRGPGESIVARVARPLGLDFHVGLADEEFYRVAHIARGKGNMGDAAAQRLLQVTMREPDAMSTRAFTNPPSILTSTNKPEWRRMQQPAANGHGNARSLAGFYSGLLDGSLLEADMLEELTREHSLGMDKTLLTQTRFGLGCMLDQPQVANATFGLGARAFGHPGAGGSIGFADPEHDVAFGFVTNTLGPYVLMDPRAQKLVRVLSDCLLEHHHHHH | not soluble |
| MESVRRGKLMKNKKIKFDVYLNGIAYHCIKCGFCCDAPTVTKKDLAKIAGYLKIPFDEVLKRYVRFFNGYIGELKEVGGKCIFLDKKTKKCKIYKVRPLICRLRPYSVQVRNGKLTLTYDIWFLRYCRGLYLGDGKVEDEYFKYAELVLKYLGFEEGVDEEEFKRAKERLLEESLKYRKKKDLEHHHHHH | soluble |
| MSLRPATDSPPLCAPPGAEVRAPSFVMPAGACDTHAHVISGDLERYPLVPDRSYTPPPAPEALYLEVLRAMGMQRGVLVQPSVYGTDNRYMLEVLQRHQDQLRGVAVVDEHVGDDELAHMHALGVRGVRINVLFRGGVNLDLMEHLAHRIADLGWHMQFLIDVRLLSEIEARMAKLPCAVVIDHFGHFPAHLGIKEAGFELLLRNVAEHGWWVKLSGAYRLSDQRPDYADTDALAHALLAVAPERMVWGSDWPHVALESTPDTSSLLDRLLSWAPSERQRQSILVDNPGALYDFKEGHHHHHH | soluble |
| MSLKQLFLIIGAPGSGKTTDAELIAKNNSETIAHFSTGDLLRAESAKKTERGLLIEKFTSQGELVPLEIVVETILSAIKSSGKGIILIDGYPRSVEQMQALDKELNAQNEVILKSVIEVEVSENTAKERVLGRSRGADDNEKVFHNRMRVFLDPLGEIQNFYKNKKVYKAIDGERSIEEIVGEMQEYILSFGNEGHHHHHH | soluble |
| MGSDKIHHHHHHMKALWILLSLTLWLFGAQNLELIKGQALFLELDKKDFLSLKNNDKNIPTFAHPKNQEKILAIFSLPYKNPPQNTKLIAFYKDKKEEIFIKTLEGNYKSEKLQIENKKIFPPKTIQERITKELKEANAIYSSYTPKALFNGAFNIPLNSFITSDFGKARTFNEKVASYHSGTDFRATTGTPIYAANSGVVKIAKDRYFAGNSVVIDHGFGIYSQYYHLSKIDVKIGQKIKKGELIGLSGATGRVSGPHLHFGILAGGKQVDPLDFVSKFNAIFQ | not soluble |
| MGRIIILDENTANQIAAGEVVERPASVVKELVENSIDAGSTNISVEINNGGISFIKVVDNGSGIEEDDIEIAFERHATSKIRRASDLEAITSLGFRGEALASIASVSTVEVTSRPAHREYGRYVKIQGGTVLESGQVGCPAGTTFIVRDLFYNTPARFKFLKKDSTEAGYVSDIVSRIALGNPDISFRLINNKNTVIHTPGNNDLLSTIYSLYGKETAKECMEISYEDETVKITGYAGSPEIARANRNYQSIYLNKRYIKNKVISSAIDEAYKTYLMKNKFAFIVLYIELNPLLVDVNVHPTKMEVRFSREQEIFRAVYHAVNNALLSKTHIRNVSLKDSPKNYFKFEQSSKKEADYVQQRLDTDRKFSGYNYDEDFKTEKTNTSKSTWENLIVKESANINKRKDETIDEVINKNEVGDKNKVISEDEVINKDEVINKDKVINKDKVINKGEVVNKVNVNEVENESVDNLINGQISGLVNWAINEPINKTNDKLIEKSDGTALKGTGEECYNFDKSGYDNILKDVSDKPKDNRNDVDNNADTNFEKIRDGKDTRPQQDIERNVFLDARIIGQVFSTYILLQNEDDLIIIDQHAAHERIRFEELKEKYARNESLAQYLLTPVVIELTNQEIVFLEEEKELFNKLGFIFESFGNNSIILRSVPIPDEGVGVKEAFLEVVDFLMSKGRKYDKIIEEDALYQIACKSAVKANKKLDEIEIKAILDKLNMLQNPYTCPHGRPTVVKITKYEFEKMFKRIV | not soluble |
| MKTEKEEAEEEPFVIRPYLKSELAHKYNPHLPLIYAMQKLRGWIRNNKELYDAMYSGGEGKNDHAYSSRQVRLIVKFLDEP | not soluble |
| MNIQPTIQSGITSQNNQHHQTEQIPSTQIPQSELPLGCQAGFVVNIPDDIQQHAPECGETTALLSLIKDKGLLSGLDEYIAPHLEEGSIGKKTLDMFGLFNVTQMALEIPSSVSGISGKYGVQLNIVKPDIHPTSGNYFLQIFPLHDEIGFNFKDLPGPLKNALSNSNISTTAVSTIASTGTSATTSTVTTEPKDPIPWFGLTAQVVRNHGVELPIVKTENGWKLVGETPLTPDGPKANYTEEWVIRPGEADFKYGASPLQATLGLEFGAHFKWDLDNPNTKYAVLTNAAANALGALGGFAVSRFASTDPMLSPHIGAMVGQAAGHAIQYNTPGLKPDTILWWAGATLGAADLNKAEFEVARFTDYPRIWWHAREGAIFPNKADIEHATGADIRAMEEGIPVGQRHPNPEDVVIDIESNGLPHHNPSNHVDIFDIIQETRV | not soluble |
| MGHHHHHHSHMLQPPKIVAELSANHNQDLNLAKESLHAIKESGADFVKLQTYTPSCMTLNSKEDPFIIQGTLWDKENLYELYQKASTPLEWHAELFELARKLDLGIFSSPFSSQALELLESLNCPMYKIASFEIVDLDLIEKAARTQKPIILSSGIATHTELQDAISLCRRVNNFDITLLKCVSAYPSKIEDANLLSMVKLGEIFGVKFGLSDHTIGSLCPILATTLGASMIEKHFILNKSLQTPDSAFSMDFNGFKSMVEAIKQSVLALGEEEPRINPKTLEKRRFFARSLFVIKDIQKGEALTENNIKALRPNLGLHPKFYKEILGQKASKFLKANTPLSADDIERSL | soluble |
| RSVAAPLVKLRKATQNIKEGNLDFVLDVEGTDEFSELCRDFEEMRRRLKESAEEKIAMDKENKELISNISHDLKTPITAVKGYVEGIMDGVADTPEKMDRYVRTIYNKTNEMDHLINELTFYSKIDTNRIPYTFSKLNVEDYFSDCAEEVGLELETRGIQLCYANYVDKDVLVIA | not soluble |
| MGSDKIHHHHHHGMDKLSTKNYHTLLEVINDQEMIASPNTQLDSQVIANSSPFGGEVVTNRSKNIDGYTVEWSNLRSRYSFFRNSIDWNEVYPGSYYSSKNFYEYNRQTKQKVASFYNPAITNYYGGIKNELSELDKMENQVAEVAISFDKPYPYEEVRKMLPSNVNLVWLYVYSETVNEAEGPSGTLPYGFQLSMDDQNEIFDPENDKQHFFETLEKSPLFADNQEGQKFIQQNKNKKVEKLPIWGVMLTGQTKNFKALQNEPFVRGASIGVTAPIVPYIQPEK | not soluble |
| MAHHHHHHMVKVKTISRSHLEWTKDRNGEVPRVNRNFDTKYNPMAKQTEFTRAIRAAKLDRMFAKPFVGALSGHHDTIQSVAVDYTSLSTVVSGAFDGGIIVWDVFTKRPKAIVDAHRHSVDGLVLSTDGVACFSASRDKVVKMWDLDFPSDDSKVEPLAEYLGEFPFSSIDHHFHKSIFVTSSDAVHLWDVNRTQPLQRFSWGDDTVSCCQFNKVETELVACCMSDRGVFIYDTRTKASHSKIIMEMCCTSVAWNPMDPNTFVTGSDDRNCYLFDMRVPGRPKSVFQGHINGITSVDFCPTGKKFVAGSLDATLRMWDIHQTTKSNSIEMYHTKRMAKVFSVKWSPDSSYIYSGSEDAILRVWKADASKPVRPLRGPERSSFNYMRSLKDRYSGFVEVRRIANQRNTPKAISRAQLRGKKAEKREFVKEASRRKHDDIKPLAQRKVYQSLN | not soluble |
| PKTGPTMTKELVFSSNIGQHDLDTKSKQIQQWIEKKYHVQVTIKRRKDAEQSEEETEEIFNQILQTMPDIATFSSRPKAIRGGTASMCVFRHLSKKEEK | soluble |
| MGSDKIHHHHHHMDQKALSMFAHLSQTLHFGKTALAHHISPSTLSRAIQRLEDEVGGELLHRDNRTVVLTDVGKKFKIYAEQQLEQWHSFKQSLDHKQAALTGKLHIYCSVTAAYSHLPPLLERFRARHPLVEIMLTTGDAADALEQVQNQSVDFAIAAAPENLPRSVYFHHLDTIALTVIAPTMTCKVQQQLSQKVLTWSEIPIILPEHGAARKRFELWYRKKQQGKPTIYATVSGHEALVSMVALGCGVGIVPQVVVDNSPVKDRVSNLENIGDIEPFELGVCCLNQAKAQPLIKAFFSSIV | not soluble |
| TLREGWVVHYSNKDTLRKRHYWRLDCKCITLFQNNTTNRYYKEIPLSEILTVESAQNFSLVPPGTNPHCFEIVTANATYFVGEMPGGTPGGPSGQGAEAARGWETAIRQALM | soluble |
